{"source": "paper PMC10522483", "target": "S. lophii 70S ribosome (Spraguea lophii (endogenous in spores))", "assay": "cryo-EM structure; electron cryo-tomography and subtomogram averaging of ribosomes in situ in polar tubes of spores germinated on the grid; dimer map 14.3 Å (C2 symmetry, 1,191 particles), half-dimer map 10.8 Å; single-particle atomic model fitted into the maps", "data": [{"substance": "S. lophii 70S ribosome (complex)", "values": [{"measurement": "percent of ribosome particles in 100S dimers", "result": 80, "unit": "%"}, {"measurement": "stoichiometry N", "result": 2}]}]}
